Legend:
RAR (subtype not stated) = assay: cell_activity; details: CV-1 cells; RAR blocks RXR transactivation at equal expression vector amount; no RA activation by RAR itself
[1] = target: RXR alpha (retinoid X receptor alpha) (Homo sapiens, UniProt P19793 P19793:1-462); assay: cell_activity; CAT induction by retinoic acid in F9 cells, CRBPII promoter reporter pCRBPII-CAT; details: tags: expression plasmid; chain copies: 4; label: 32P
Protocol: Chem. 262:2425–2467 (1987)], was introduced into a plasmid which would regulate expression of the reporter, bacterial chloramphenicol acetyl transferase (see FIG. 1). The resultant reporter plasmid, pCRBPII-CAT, was tested for retinoic acid (RA) responsiveness after transfection into mouse embryonal teratocarcinoma F9 cells. F9 cells endogenously express high amounts of retinoic acid receptor (RAR), and can efficiently transactivate (>100-fold) a reporter plasmid containing the well characterized RA-inducible promoter of the RARβ gene [see de The et al., in Nature 343:177–180 (1990) and Sucov, et al., in Proc. Natl. Acad. Sci. U.S.A. 87:5392–5396 (1990)]. However, pCRBPII-CAT conferred no basal or RA-inducible CAT activity in these cells. To eliminate the possibility that regulation of the CRBPII promoter requires an augmented concentration of RAR, as is the case for the laminin retinoic acid response element [RARE; see Vasias, et al., in Proc. Natl Acad. Sci. U.S.A. 86:9099–9103 (1989], or that its regulation is isoform specific, expression vectors bearing all three subtypes of RAR were each separately cotransfected with pCRBPII-CAT into F9 cells.
To assess the exact sequences within the CRBPII promoter that function as an RXR response element (RXRE), a series of 5'-deletion mutants were constructed starting with the parent reporter plasmid pCRBPII-CAT (see FIG. 2). […]

Sequence of RXR alpha (retinoid X receptor alpha) (P19793 whole entry, one chain of several): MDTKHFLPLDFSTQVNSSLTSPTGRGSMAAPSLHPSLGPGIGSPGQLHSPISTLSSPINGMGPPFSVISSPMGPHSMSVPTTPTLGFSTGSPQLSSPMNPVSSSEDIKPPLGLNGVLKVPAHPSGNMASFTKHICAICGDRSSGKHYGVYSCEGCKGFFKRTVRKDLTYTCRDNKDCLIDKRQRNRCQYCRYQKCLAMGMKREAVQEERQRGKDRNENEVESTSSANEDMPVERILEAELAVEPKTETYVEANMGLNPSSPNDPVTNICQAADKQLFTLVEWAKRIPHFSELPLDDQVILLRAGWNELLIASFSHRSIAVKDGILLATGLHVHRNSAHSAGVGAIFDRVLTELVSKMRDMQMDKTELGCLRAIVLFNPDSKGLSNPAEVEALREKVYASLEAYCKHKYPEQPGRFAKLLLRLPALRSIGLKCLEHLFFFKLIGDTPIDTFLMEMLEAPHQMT

For “GCTGTCACAGGTCACAGGTCACAGGTCACAGTTCA (double strand) [CRBPII-RXRE]”, the activity (% suppression of RXR activation) (RAR (subtype not stated)) was 90.

B1: CRBPII-RXRE (dsDNA)
DNA 1: GCTGTCACAGGTCACAGGTCACAGGTCACAGTTCA
DNA 2: TGAACTGTGACCTGTGACCTGTGACCTGTGACAGC
Work on B1 yielded an activity [1] of 100 fold.
